From patent publication US20170022277A1 (NATIONAL RESEARCH COUNCIL OF CANADA, published 2017) come the findings set out here.

For orientation: Kd means a measure of binding affinity in units of concentration. One may read the koff as a measure of how fast the partners let go of each other.

Where a chain is given by its changes, count along the chain named.

In assay [1] the target is T1, recombinant human IGF1R extracellular fragment IGF1R^933-His (human, UniProt P08069 31-933).
T1 construct: It holds the full alpha subunit, the furin site RKRR and most of the extracellular part of the beta subunit; Amine-coupled to a CM5 chip for SPR; also called recombinant extracellular portion of the human IGF1R fragment; not shown: His tag from pCDN4/myc-His vector
Nature of the assay: SPR (BIACORE 3000), human IGF1R immobilized on CM5, 1:1 model. As to the method:
Approximately 3000 Resonance Units (RU) of recombinant human IGF1R were immobilized on a Sensor chip CM5. Immobilization was carried out at a concentration of 10 μg/ml in 10 mM acetate at pH4.0 using the amine coupling kit supplied by the manufacturer. The remaining binding sites were blocked with 1 M ethanolamine pH 8.5. An ethanolamine blocked surface was used as a reference surface. For the binding studies, analyses were carried out at 25° C. in 10 mM HEPES, pH7.4 containing 150 mM NaCl, 3 mM EDTA and 0.005% surfactant P20 (Polyoxyethylenesorbitan; GE Healthcare). […] Surfaces were regenerated with 10 mM glycine pH 2.0 with a contact time of 24 seconds. Data were analyzed with BIAevaluation 4.1 software (GE Healthcare).
In general terms: Surface plasmon resonance follows binding to a sensor surface in real time, without labels.

The target of assay [2] is T2, recombinant human Insulin Receptor (R&D systems) (human, UniProt P06213-2 28-944, limits assumed).
T2 construct: extracellular domain; Bought protein; About 4000 RU immobilized on a CM5 chip; also called IR; recombinant extracellular portion of the human Insulin Receptor
Nature of the assay: SPR, IGF1R-4 VHH (0.5 - 50nM) over immobilized recombinant human Insulin Receptor.

T1 sequence (P08069 31-933): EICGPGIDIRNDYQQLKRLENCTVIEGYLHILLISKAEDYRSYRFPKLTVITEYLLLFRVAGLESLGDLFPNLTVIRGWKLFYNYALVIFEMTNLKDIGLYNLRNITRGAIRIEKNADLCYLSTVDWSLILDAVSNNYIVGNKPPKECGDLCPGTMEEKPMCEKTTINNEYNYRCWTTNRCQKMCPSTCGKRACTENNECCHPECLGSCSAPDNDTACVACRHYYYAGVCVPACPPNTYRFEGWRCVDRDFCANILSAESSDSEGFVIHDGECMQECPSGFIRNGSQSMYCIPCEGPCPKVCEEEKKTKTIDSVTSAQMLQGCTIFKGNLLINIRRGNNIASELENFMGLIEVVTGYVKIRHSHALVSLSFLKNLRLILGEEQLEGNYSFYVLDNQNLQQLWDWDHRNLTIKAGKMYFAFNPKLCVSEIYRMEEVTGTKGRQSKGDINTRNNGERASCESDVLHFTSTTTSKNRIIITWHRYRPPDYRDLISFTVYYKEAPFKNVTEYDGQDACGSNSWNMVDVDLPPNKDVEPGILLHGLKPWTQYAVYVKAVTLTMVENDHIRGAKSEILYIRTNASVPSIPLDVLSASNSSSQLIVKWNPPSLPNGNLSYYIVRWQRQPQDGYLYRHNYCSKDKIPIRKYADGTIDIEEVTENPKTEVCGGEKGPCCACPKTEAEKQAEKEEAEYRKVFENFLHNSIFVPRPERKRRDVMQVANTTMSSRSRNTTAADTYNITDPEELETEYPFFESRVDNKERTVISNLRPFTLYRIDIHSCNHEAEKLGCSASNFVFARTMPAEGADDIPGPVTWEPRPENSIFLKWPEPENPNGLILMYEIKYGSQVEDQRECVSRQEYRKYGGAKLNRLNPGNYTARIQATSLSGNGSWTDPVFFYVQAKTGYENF
T2 sequence (P06213 other isoform, or with tags, fused parts or gaps limits assumed): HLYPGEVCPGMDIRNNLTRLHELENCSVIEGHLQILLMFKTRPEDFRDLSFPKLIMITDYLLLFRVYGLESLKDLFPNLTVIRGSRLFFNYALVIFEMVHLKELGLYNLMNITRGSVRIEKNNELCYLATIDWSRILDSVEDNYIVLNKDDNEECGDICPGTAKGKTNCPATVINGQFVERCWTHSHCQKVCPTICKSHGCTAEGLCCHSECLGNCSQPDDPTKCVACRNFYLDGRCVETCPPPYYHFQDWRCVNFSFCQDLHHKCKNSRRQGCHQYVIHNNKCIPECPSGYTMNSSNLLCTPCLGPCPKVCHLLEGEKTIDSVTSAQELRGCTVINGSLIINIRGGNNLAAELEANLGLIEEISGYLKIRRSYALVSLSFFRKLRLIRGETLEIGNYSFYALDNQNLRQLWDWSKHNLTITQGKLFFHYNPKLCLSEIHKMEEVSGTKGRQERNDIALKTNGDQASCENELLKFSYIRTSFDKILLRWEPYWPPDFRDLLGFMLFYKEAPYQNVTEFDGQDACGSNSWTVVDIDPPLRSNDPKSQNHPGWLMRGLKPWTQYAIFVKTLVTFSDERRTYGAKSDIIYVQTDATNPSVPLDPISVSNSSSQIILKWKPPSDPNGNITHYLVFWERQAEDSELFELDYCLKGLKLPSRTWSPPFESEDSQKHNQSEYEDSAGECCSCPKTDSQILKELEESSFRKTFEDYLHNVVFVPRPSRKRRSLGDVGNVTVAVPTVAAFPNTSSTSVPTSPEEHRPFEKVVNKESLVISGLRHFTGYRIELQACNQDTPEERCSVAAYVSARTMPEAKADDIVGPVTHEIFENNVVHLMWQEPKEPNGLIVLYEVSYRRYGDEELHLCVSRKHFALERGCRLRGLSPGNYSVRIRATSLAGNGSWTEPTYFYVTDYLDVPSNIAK

B1: IGF1R-4_H4 (VHH)
VHH: QVQLVESGGGLVQPGGSLRLSCAVSGGTVSPTAMGWFRQAPGKGLEFVGHITWSRGTTRYASSVKGRFTISRDSSKNTVYLQMNSLRAEDTAVYYCAASTFLRILPEESAYTYWGQGTLVTVSS
notes: Humanized variant of IGF1R-4; expressed from pSJF2H in E. coli and purified by IMAC; any vector tag is not described
In the case of B1, in assay [1], the dissociation constant Kd amounted to 0.45 nM and the dissociation rate constant (koff) is 0.00039 s⁻¹.

B2: IGF1R-4_H3 (VHH)
VHH: B1 VHH with S74N
notes: as for B1
In the case of B2, in assay [1], the Kd amounted to 0.39 nM and the koff came out at 0.00034 s⁻¹.

B3: IGF1R-4_H5 (VHH)
VHH: B1 VHH with G44E, L45R
notes: as for B1
For the molecule B3, in assay [1], the Kd was 0.52 nM and the koff is 0.00046 s⁻¹.

B4: IGF1R-4 VHH (VHH)
VHH: QVKLEESGGGLVQAGGSLRLSCEVSGGTVSPTAMGWFRQAPGKEREFVGHITWSRGTTRVASSVKDRFTISRDSAKNTVYLQMNSLKSEDTAVYYCAASTFLRILPEESAYTYWGQGTQVTVSS
notes: Llama VHH, monomeric; Expressed from pSJF2H in TG1 E. coli and purified by IMAC; also called anti-IGF1R VHH IGF1R-4
B4: in assay [1], the Kd amounted to 0.32 nM and the dissociation rate constant (koff) is 0.00029 s⁻¹. The binding result in assay [2] is given as “no binding (tested: 50 nM)”.

B5: IGF1R-4_H2 (VHH)
VHH: B1 VHH with F37V, F47W, S74N
notes: as for B1
Turning to B5, in assay [1], the Kd was determined as 1.07 nM and the koff was 0.00061 s⁻¹.
